Where “and” joins values, the source holds several entries; their conditions need not be identical. Identical values can stand only once.
B1: Cytochrome b5 type B, P04166 (parent)
chain: MATPEASGSGRNGQGSDPAVTYYRLEEVAKRNTAEETWMVIHGRVYDITRFLSEHPGGEEVLLEQAGADATESFEDVGHSPDAREMLKQYYIGDVHPNDLKPKDGDKDPSKNNSCQSSWAYWIVPIVGAILIGFLYRHFWADSKSS

Variants of: B1
Conditions: Rattus norvegicus, pH 7, CD, potassium phosphate buffer, transition: 2, reversible: yes, structure 1B5M, whole UniProt chain shown; for denaturant midpoint (higher = more stable): 25 °C, GdnHCl; for Tm / change of melting temperature, mutant - wild type (higher = more stable): Thermal

Variant	denaturant midpoint (higher = more stable)	Tm [°C]	change of melting temperature, mutant - wild type (higher = more stable) [°C]
MATPEASGSGRNGQGSDPAVTYYRLEEVAKRNTAEETWMVIHGRVYDLTRFLSEHPGGEEVLLEQAGADATESFEDVGHSPDAREMLKQYYIGDVHPNDLKPKDGDKDPSKNNSCQSSWAYWIVPIVGAILIGFLYRHFWADSKSS [I48L]	3.93 M and 3.91 M	85.7	-1.3
MATPEASGSGRNGQGSDPAVTYYRLEEVAKRNTSEETWMVIHGRVYDLTRFLSEHPGGEEVLREQAGADATESFEDVGHSPDAREMLKQYYIGDVHPNDLKPKDGDKDPSKNNSCQSSWAYWIVPIVGAILIGFLYRHFWADSKSS [A34S I48L L63R]	3.34 M and 3.33 M	81.8	-5.2
MATPEASGSGRNGQGSDPAVTYYRLEEVAKRNTSEETWMVIHGRVYDITRFLSEHPGGEEVLREQAGADATESFEDVGHSPDAREMLKQYYIGDVHPNDLKPKDGDKDPSKNNSCQSSWAYWIVPIVGAILIGFLYRHFWADSKSS [A34S L63R]	3.56 M and 3.52 M	83.3	-3.7

From FireProtDB (doi:10.1021/bi010636i)
